Measured values as given in publication PMC8864007, “Evaluation of an ^131I-labeled HER2-specific single domain antibody fragment for the radiopharmaceutical therapy of HER2-expressing cancers” (Scientific Reports, 2022).
Where “and” joins values, the source holds several entries; their conditions need not be identical. Identical values can stand only once.

Tests used:
murine HER2 = target: T1, murine HER2 (Mus musculus, UniProt P70424); test: ELISA; affinity, specificity and species cross-reactivity by ELISA; details in Supplementary Materials
T1 construct: murine HER2

HER2-Fc protein = target: T2, HER2-Fc protein (Homo sapiens, UniProt P04626); test: SPR; Biacore 3000 System; binding to HER2-Fc protein; which partner was immobilised is not stated; conditions: both partners purified
T2 construct: human epidermal growth factor receptor type 2 (HER2), fused to Fc; Probably the extracellular domain of HER2; The source may stand in Supplementary Methods

[1] = target: T3, human epidermal growth factor receptor type 2 (HER2) on HER2-expressing carcinoma cells (Homo sapiens, endogenous on SKOV-3 cells, UniProt P04626); test: radioligand binding; cell-based affinity assay on HER2-expressing SKOV-3 cells; nonspecific binding measured with a 100-fold molar excess of trastuzumab; three therapy-level batches; conditions: one partner purified
T3 construct: human epidermal growth factor receptor type 2 (HER2), endogenous on SKOV-3 and BT474 cells; The assay tells which cell line was used; also called HER2 receptor; source: endogenous, on SKOV-3 human ovarian carcinoma cells and on BT474 human breast carcinoma cells

T1 sequence (P70424 23-1256): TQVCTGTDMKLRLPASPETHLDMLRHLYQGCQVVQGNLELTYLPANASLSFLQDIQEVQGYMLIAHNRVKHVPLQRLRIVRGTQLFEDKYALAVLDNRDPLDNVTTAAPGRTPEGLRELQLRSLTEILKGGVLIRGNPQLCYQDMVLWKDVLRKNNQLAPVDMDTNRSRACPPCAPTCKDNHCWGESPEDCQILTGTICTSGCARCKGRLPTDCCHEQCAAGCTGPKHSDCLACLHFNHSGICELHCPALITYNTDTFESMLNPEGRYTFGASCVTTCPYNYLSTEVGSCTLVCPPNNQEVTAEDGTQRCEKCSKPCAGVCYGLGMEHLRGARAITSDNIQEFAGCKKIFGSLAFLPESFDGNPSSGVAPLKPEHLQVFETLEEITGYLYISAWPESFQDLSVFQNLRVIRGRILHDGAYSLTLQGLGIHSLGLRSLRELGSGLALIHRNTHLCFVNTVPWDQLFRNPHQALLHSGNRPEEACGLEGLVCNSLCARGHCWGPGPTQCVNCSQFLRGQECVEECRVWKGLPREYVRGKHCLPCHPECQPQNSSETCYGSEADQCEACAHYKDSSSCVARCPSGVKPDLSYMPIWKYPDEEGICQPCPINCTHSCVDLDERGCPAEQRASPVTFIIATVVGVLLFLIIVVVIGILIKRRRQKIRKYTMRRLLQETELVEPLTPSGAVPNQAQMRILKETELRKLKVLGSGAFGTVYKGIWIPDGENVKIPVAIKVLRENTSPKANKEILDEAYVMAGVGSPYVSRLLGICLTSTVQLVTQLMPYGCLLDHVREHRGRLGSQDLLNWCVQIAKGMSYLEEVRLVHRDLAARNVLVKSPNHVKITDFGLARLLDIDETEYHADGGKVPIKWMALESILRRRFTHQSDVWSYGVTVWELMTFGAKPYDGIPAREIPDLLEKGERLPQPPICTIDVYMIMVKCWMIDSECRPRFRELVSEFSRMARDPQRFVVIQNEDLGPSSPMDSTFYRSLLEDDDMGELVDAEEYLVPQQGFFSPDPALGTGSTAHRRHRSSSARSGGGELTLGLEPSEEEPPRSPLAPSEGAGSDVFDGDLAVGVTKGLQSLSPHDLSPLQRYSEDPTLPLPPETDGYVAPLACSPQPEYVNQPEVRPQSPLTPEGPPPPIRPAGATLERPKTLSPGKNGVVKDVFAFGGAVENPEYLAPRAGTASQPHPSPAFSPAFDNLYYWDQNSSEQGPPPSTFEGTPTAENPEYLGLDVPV

binding result (murine HER2)	Kd (HER2-Fc protein)	Kd [1]	Binder
no binding	0.21 nM	–	VHH_1028 (VHH, Measured mass 12,844.0 Da (theoretical 12,844.2 Da); Engineered to have no lysine in its CDR regions; also called anti-HER2 VHH_1028; sdAb VHH_1028; source: developed and provided by Cereius, Inc; production and purification in Supplementary Materials) VHH: EVQLVESGGGLVQAGGSLRLSCAASGITFSINTMGWYRQAPGKQRELVALISSIGDTYYADSVRGRFTISRDNAKNTVYLQMNSLKPEDTAVYYCKRFRTAAQGTDYWGQGTQVTVSS
–	0.21 nM	–	iso-SGMIB-VHH_1028 (VHH, as the chain of m1; Measured mass 13,147.6 Da (calculated 13,146.4 Da); also called unlabeled iso-SGMIB-VHH_1028; 1:1 iso-SGMIB-VHH_1028 conjugate; source: VHH_1028 reacted with iso-SGMIB, 1:1 conjugate isolated by HIC-HPLC) VHH: EVQLVESGGGLVQAGGSLRLSCAASGITFSINTMGWYRQAPGKQRELVALISSIGDTYYADSVRGRFTISRDNAKNTVYLQMNSLKPEDTAVYYCKRFRTAAQGTDYWGQGTQVTVSS
–	–	1.5 nM and 2.9 nM and 2.6 nM	iso-[^131I]SGMIB-VHH_1028 (VHH, as the chain of m1; source: VHH_1028 conjugated with iso-[^131I]SGMIB, isolated by gel filtration (PD-10)) VHH: EVQLVESGGGLVQAGGSLRLSCAASGITFSINTMGWYRQAPGKQRELVALISSIGDTYYADSVRGRFTISRDNAKNTVYLQMNSLKPEDTAVYYCKRFRTAAQGTDYWGQGTQVTVSS
